Measured values: paper PMC3139646, “Synthesis and Investigation of a Radioiodinated F3 Peptide Analog as a SPECT Tumor Imaging Radioligand” (PLoS ONE, 2011)

Experiments:
[1] = system: MDA-MB-435 tumor xenografts; type: in vivo, mouse
Method: At 4 h, kidney and bladder were not visualized likely due to voiding of urine. It is possible that the presence of urine radioactivity in kidney and bladder, at the early time intervals, could have contributed to an overestimation of tissue radioactivity uptake in these organs in the images. […] Intestinal radioactivity was clearly apparent in the 4 h images, which is most likely due to a shift in radioactivity clearance from the renal to hepatobiliary excretion pathway at later time intervals.
Mouse SPECT/CT imaging studies were performed on a GMI Tri-Modality CT/PET/SPECT small animal scanner (Gamma-Medica Ideas, Inc., Northridge, CA). SPECT images were acquired using a dual-head, high-resolution, low-energy parallel-hole collimator. CT imaging of animals was performed for anatomical co-registration and CT fusion of SPECT images were performed using AMIRA (version 3.1) software (Visage Imaging, San Diego, CA USA). Imaging was performed when tumors reached a 60–100 mm^3 average volume.

[2] = system: MDA-MB-435 tumor-bearing athymic nude mice; details: mouse, in vivo, iv
Method: Kidney uptake of radioactivity (5.68%ID/g and 10.8% ID/g at 5 and 30 min respectively post-injection) was the highest among all sampled tissues confirming that renal elimination is the major excretory pathway for the radioligand (Table S1). In tumors, radioactivity levels peaked at 30 min post-injection (1.05% ID/g).
(A) Tissue distribution at 60 min post injection and reported as percent injected dose per gram of tissue (%ID/g). (B) and (C) represent the ratio of radioactivity in tumor to blood and tumor to muscle respectively at various time intervals. All the data are computed as mean +/− SEM.
Female CD-1 nude mice (nu/nu, 25–28 g) bearing MDA-MB-435 mammary fat pad tumor xenografts on opposite sides were utilized for the biodistribution studies. Four animals (N = 4) were used per time point. […] Selected tissues (blood, heart, liver, lung, spleen, adrenals, tumor, kidney, muscle, whole brain and thyroid) were harvested and tissue samples were assayed for activity using a Gamma Counter. Tissue uptake was computed as % injected dose/gram (%ID/g).
All the data are computed as mean +/− SEM. (DOCX) Click here for additional data file.

[3] = system: tumor-bearing athymic nude mice; details: mouse, in vivo, iv
From the text: The remaining radioactivity consisted primarily of two hydrophobic radiometabolites representing 47% and 18% of the total plasma radioactivity. […] In contrast, the parent radioligand accounted for 42% of the total radioactivity present in mouse urine samples at this time interval. The remaining radioactivity consisted of three major hydrophobic radiometabolites representing 28%, 6.8% and 10% of the total. […] This is possibly due to its high in vivo tumor affinity which results in its rapid sequestration and retention within the tumor cells in a nucleolin dependent manner.
Blood and urine samples were collected, centrifuged at 12,000 rpm for 15 min, and the supernatants transferred to a fresh centrifuge tube and the centrifugation repeated. The supernatants were treated with CH3CN and centrifuged again to precipitate proteins and the clear supernatants analyzed by radio-HPLC (Method I).

[4] = Storage stability of formulated radioligand (radio-HPLC); type: physicochemical; details: formulated in PBS:EtOH [95:5], stored at 5°C, radio-HPLC analysis
Method: The 3-(tri-n-butylstannyl)[…] analog 8 was obtained from the N-succinimidyl-3-(tri-n-butylstannyl)benzoate analog 7 using the approach described for the synthesis of 5 (Scheme A). […] The radioiodinated product was well resolved from the tri-n-butylstannyl starting material (Rt>25 min) under the HPLC conditions. […] The radioligand which was formulated in PBS∶EtOH [95∶5] was stable for at least 1 week when stored at 5°C (<2% radiolytic decomposition by radio-HPLC analysis).

## N-(2-{3-[^125I]Iodobenzoyl}aminoethyl)maleimide-F3Cys peptide [[^125I]IBMF3]
[1]; 15 min post-injection, i.v. 570–610 µCi, MDA-MB-435 xenografts
  Tumor uptake in SPECT images, early: distinct uptake of radioactivity in tumor as early as 15 min post-injection
[1]; 4 h post-injection, i.v. 570–610 µCi, MDA-MB-435 xenografts
  Tumor visualization in SPECT images at 4 h: visualized in the SPECT images at 4 h although at lower levels
[1]; >4 h post-injection, i.v., MDA-MB-435 xenografts
  Tumor radioactivity in SPECT images at later time intervals: substantial clearance at later time intervals
[1]; mouse, in vivo, iv
  Thyroid uptake in SPECT images (in vivo deiodination): Moderate radioactivity uptake was seen in thyroid
[2]
  Extraction into brain: 0.03 %ID/g
  Radioactivity clearance from blood: > 60%
  Tumor-to-blood ratio: 2.1
  Tumor-to-muscle ratio: 4.3
[3]
  Hydrophobic radiometabolite (first named), share of total plasma radioactivity: 47%
  Hydrophobic radiometabolite (first named), share of total urine radioactivity: 28%
  Hydrophobic radiometabolite (second named), share of total plasma radioactivity: 18%
  Hydrophobic radiometabolite (second named), share of total urine radioactivity: 6.8%
  Hydrophobic radiometabolite (third named), share of total urine radioactivity: 10%
  Parent radioligand, share of total urine radioactivity: 42%
[4]; 1 week
  Radiolytic decomposition on storage: < 2%
[4]
  Time stable on storage: at least 1 week
